One data set deals with DrLigA (Deinococcus radiodurans, UniProt Q9RSQ5 1-700). In words: EMSA; 5 mM MgSO4, 5 mM MnSO4, 300 µM NAD+; 100 nM DNA, tight at 10-fold protein; 20 mM Bis-Tris pH 6.0, 5 mM MgSO4, 5 mM MnSO4, 300 µM NAD+, 25% glycerol; 100 nM DNA; 15 min at room temperature; 6% PAGE, 1x TBE, 4 °C. In general terms: In EMSA bound probe runs differently from free probe, usually more slowly.
Another data set has as its target DrLigAΔBRCT (Deinococcus radiodurans, UniProt Q9RSQ5 1-600). Kind of data set: EMSA; 5 mM MgSO4, 5 mM MnSO4, 300 µM NAD+; no complex up to 1:10 DNA:protein (100 nM DNA); 20 mM Bis-Tris pH 6.0, 5 mM MgSO4, 5 mM MnSO4, 300 µM NAD+, 25% glycerol; 100 nM DNA; 15 min at room temperature; 6% PAGE, 1x TBE, 4 °C.

The record followed here is paper PMC10504179.

B1: single nicked 40 nt dsDNA (Template T + N1 + N2) (dsDNA)
DNA 1: ATTGAGTGGACAAAGTATCGTAGGGTAGTATTGGTGGATA
DNA 2: TATCCACCAATACTACCCTA
DNA 3: CGATACTTTGTCCACTCAAT
modifications: none; 5' end at nick not phosphorylated
Regarding B1, the binding result with DrLigA is listed as “binds”; with DrLigAΔBRCT, “no binding”.

B2: 1 nt gapped 40 nt dsDNA (Template T + G1 + G2) (dsDNA)
DNA 1: ATTGAGTGGACAAAGTATCGTAGGGTAGTATTGGTGGATA
DNA 2: TATCCACCAATACTACCCTAC
DNA 3: ATACTTTGTCCACT
modifications: none; 5' end at gap not phosphorylated
On to B2, for which the binding result with DrLigA is recorded as “binds”; with DrLigAΔBRCT, “no binding”.

B3: single nick with 10 nt 5'-flap 40 nt dsDNA (Template T + F1 + N2) (dsDNA)
DNA 1: ATTGAGTGGACAAAGTATCGTAGGGTAGTATTGGTGGATA
DNA 2: TATCCACCAATACTACCCTA
DNA 3: TAACGCTGGGCGATACTTTGTCCACTCAAT
modifications: none; 5' end of flap not phosphorylated
On to B3, for which the binding result with DrLigAΔBRCT is given as “no binding”.
